Measured values published in patent US20250135048A1, “Fibroblast activation protein compound or salt with albumin dual-binding function” (National Atomic Research Institute, priority 2023, published 2025).

What was measured:
[1] = system: HEK-293 human embryonic kidney cancer cells expressing FAP (HEK-293-FAP cells) tumor; assay: nanoSPECT/CT imaging biodistribution in tumor of HEK-293-FAP tumor-bearing mice; details: BALB/c nude mice, nanoSPECT/CT semi-quantification
Experimental: (§1) The HEK-293 human embryonic kidney cancer cells expressing FAP (HEK-293-FAP cells) are inoculated with 4×10^6 cells at the forward right flanks of BALB/c nude mice. […] These drugs are prepared to about 100 μL volume in normal saline. The nanoSPECT/CT imaging is performed at 1, 4, and 24 h after the intravenously administrated via tail vein.
(§2) The nanoSPECT/CT imaging is performed at 1, 4, and 24 h after administration to monitor the distribution of radiopharmaceuticals in the animal. The images are semi-quantification by using imaging analysis software. The SPECT count value of reference source is obtained by using imaging analysis software. […] The SPECT count value is obtained from region of image of each target organ, and obtained the activity/volume of each target organ by using the conversion formula.

[2] = nanoSPECT/CT imaging biodistribution in blood of heart of HEK-293-FAP tumor-bearing mice; details: BALB/c nude mice, nanoSPECT/CT semi-quantification
Experimental: as §1, §2

[3] = 1 h after intravenous administration via tail vein
[4] = 4 h after intravenous administration via tail vein
[5] = 24 h after intravenous administration via tail vein

Row | Structure (SMILES) | Tumor biodistribution value [1, 3] | Tumor biodistribution value [1, 4] | Tumor biodistribution value [1, 5] | Blood of heart biodistribution value [2, 3] | Blood of heart biodistribution value [2, 4] | Blood of heart biodistribution value [2, 5]
1 | CN(CCCN1CCN(C(=O)[C@H](COCCNC(=O)CCCc2ccc(I)cc2)NC(=O)[C@H](CCCCSC2CC(=O)N(CCC(=O)N[C@@H](CCCNC(=N)N)C(=O)N[C@@H](CCCNC(=N)N)C(=O)N[C@@H](CCCNC(=N)N)C(=O)N[C@@H](CCCNC(=N)N)C(=O)N[C@@H](CCCNC(=N)N)C(=O)N[C@@H](CCCNC(=N)N)C(=O)N[C@@H](CCCNC(=N)N)C(=O)N[C@@H](CCCNC(=N)N)C(=O)N[C@@H](CCCNC(=N)N)C(=O)N[C@@H](CCCNC(=N)N)C(=O)N[C@@H](CCCNC(=N)N)C(=O)N[C@@H](CCCNC(=N)N)C(=O)O)C2=O)NC(=O)CNC(=O)CN2CCN(CC(=O)O)CCN(CC(=O)O)CCN(CC(=O)O)CC2)CC1)c1ccc2nccc(C(=O)NCC(=O)N3CC(F)(F)C[C@H]3C#N)c2c1 (stereo partly drawn) [Lu-177-INER-FAPI-1.23, metal not drawn] | 6.58 % ID/mL | 5.96 % ID/mL | 3.23 % ID/mL | 10.54 % ID/mL | 8.89 % ID/mL | 3.49 % ID/mL
2 | CN(CCCN1CCN(C(=O)[C@H](COCCNC(=O)CCCc2ccc(I)cc2)NC(=O)[C@H](CCCCSC2CC(=O)N(CCC(=O)N[C@@H](CCCCN)C(=O)N[C@@H](CCCCN)C(=O)N[C@@H](CCCCN)C(=O)N[C@@H](CCCCN)C(=O)N[C@@H](CCCCN)C(=O)N[C@@H](CCCCN)C(=O)N[C@@H](CCCCN)C(=O)N[C@@H](CCCCN)C(=O)O)C2=O)NC(=O)CNC(=O)CN2CCN(CC(=O)O)CCN(CC(=O)O)CCN(CC(=O)O)CC2)CC1)c1ccc2nccc(C(=O)NCC(=O)N3CC(F)(F)C[C@H]3C#N)c2c1 (stereo partly drawn) [Lu-177-INER-FAPI-1.12, metal not drawn] | 4.71 % ID/mL | 5.08 % ID/mL | 4.21 % ID/mL | 16.19 % ID/mL | 13.33 % ID/mL | 5.50 % ID/mL
3 | CN(CCCN1CCN(C(=O)[C@H](COCCNC(=O)CCCc2ccc(I)cc2)NC(=O)[C@H](CCCCSC2CC(=O)N(CCC(=O)N[C@@H](CCCCN)C(=O)N[C@@H](CCCCN)C(=O)N[C@@H](CCCCN)C(=O)N[C@@H](CCCCN)C(=O)N[C@@H](CCCCN)C(=O)N[C@@H](CCCCN)C(=O)N[C@@H](CCCCN)C(=O)N[C@@H](CCCCN)C(=O)N[C@@H](CCCCN)C(=O)N[C@@H](CCCCN)C(=O)N[C@@H](CCCCN)C(=O)N[C@@H](CCCCN)C(=O)O)C2=O)NC(=O)CNC(=O)CN2CCN(CC(=O)O)CCN(CC(=O)O)CCN(CC(=O)O)CC2)CC1)c1ccc2nccc(C(=O)NCC(=O)N3CC(F)(F)C[C@H]3C#N)c2c1 (stereo partly drawn) [Lu-177-INER-FAPI-1.13, metal not drawn] | 8.03 % ID/mL | 8.54 % ID/mL | 5.44 % ID/mL | 15.70 % ID/mL | 12.33 % ID/mL | 5.44 % ID/mL
